According to IntAct's records for PubMed 26221972:

B1: T-lymphocyte surface antigen Ly-9 (Homo sapiens), Q9HBG7 (parent)
chain: MVAPKSHTDDWAPGPFSSKPQRSQLQIFSSVLQTSLLFLLMGLRASGKDSAPTVVSGILGGSVTLPLNISVDTEIENVIWIGPKNALAFARPKENVTIMVKSYLGRLDITKWSYSLCISNLTLNDAGSYKAQINQRNFEVTTEEEFTLFVYEQLQEPQVTMKSVKVSENFSCNITLMCSVKGAEKSVLYSWTPREPHASESNGGSILTVSRTPCDPDLPYICTAQNPVSQRSSLPVHVGQFCTDPGASRGGTTGETVVGVLGEPVTLPLALPACRDTEKVVWLFNTSIISKEREEAATADPLIKSRDPYKNRVWVSSQDCSLKISQLKIEDAGPYHAYVCSEASSVTSMTHVTLLIYRRLRKPKITWSLRHSEDGICRISLTCSVEDGGNTVMYTWTPLQKEAVVSQGESHLNVSWRSSENHPNLTCTASNPVSRSSHQFLSENICSGPERNTKLWIGLFLMVCLLCVGIFSWCIWKRKGRCSVPAFCSSQAEAPADTPEPTAGHTLYSVLSQGYEKLDTPLRPARQQPTPTSDSSSDSNLTTEEDEDRPEVHKPISGRYEVFDQVTQEGAGHDPAPEGQADYDPVTPYVTEVESVVGENTMYAQVFNLQGKTPVSQKEESSATIYCSIRKPQVVPPPQQNDLEIPESPTYENFT
partner: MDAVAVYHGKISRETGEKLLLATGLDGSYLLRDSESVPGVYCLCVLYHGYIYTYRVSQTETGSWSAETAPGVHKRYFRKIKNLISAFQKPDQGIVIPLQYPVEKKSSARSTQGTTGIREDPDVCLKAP
B2: T-lymphocyte surface antigen Ly-9 (Homo sapiens), Q9HBG7 (parent)
chain: B1 chain
partner: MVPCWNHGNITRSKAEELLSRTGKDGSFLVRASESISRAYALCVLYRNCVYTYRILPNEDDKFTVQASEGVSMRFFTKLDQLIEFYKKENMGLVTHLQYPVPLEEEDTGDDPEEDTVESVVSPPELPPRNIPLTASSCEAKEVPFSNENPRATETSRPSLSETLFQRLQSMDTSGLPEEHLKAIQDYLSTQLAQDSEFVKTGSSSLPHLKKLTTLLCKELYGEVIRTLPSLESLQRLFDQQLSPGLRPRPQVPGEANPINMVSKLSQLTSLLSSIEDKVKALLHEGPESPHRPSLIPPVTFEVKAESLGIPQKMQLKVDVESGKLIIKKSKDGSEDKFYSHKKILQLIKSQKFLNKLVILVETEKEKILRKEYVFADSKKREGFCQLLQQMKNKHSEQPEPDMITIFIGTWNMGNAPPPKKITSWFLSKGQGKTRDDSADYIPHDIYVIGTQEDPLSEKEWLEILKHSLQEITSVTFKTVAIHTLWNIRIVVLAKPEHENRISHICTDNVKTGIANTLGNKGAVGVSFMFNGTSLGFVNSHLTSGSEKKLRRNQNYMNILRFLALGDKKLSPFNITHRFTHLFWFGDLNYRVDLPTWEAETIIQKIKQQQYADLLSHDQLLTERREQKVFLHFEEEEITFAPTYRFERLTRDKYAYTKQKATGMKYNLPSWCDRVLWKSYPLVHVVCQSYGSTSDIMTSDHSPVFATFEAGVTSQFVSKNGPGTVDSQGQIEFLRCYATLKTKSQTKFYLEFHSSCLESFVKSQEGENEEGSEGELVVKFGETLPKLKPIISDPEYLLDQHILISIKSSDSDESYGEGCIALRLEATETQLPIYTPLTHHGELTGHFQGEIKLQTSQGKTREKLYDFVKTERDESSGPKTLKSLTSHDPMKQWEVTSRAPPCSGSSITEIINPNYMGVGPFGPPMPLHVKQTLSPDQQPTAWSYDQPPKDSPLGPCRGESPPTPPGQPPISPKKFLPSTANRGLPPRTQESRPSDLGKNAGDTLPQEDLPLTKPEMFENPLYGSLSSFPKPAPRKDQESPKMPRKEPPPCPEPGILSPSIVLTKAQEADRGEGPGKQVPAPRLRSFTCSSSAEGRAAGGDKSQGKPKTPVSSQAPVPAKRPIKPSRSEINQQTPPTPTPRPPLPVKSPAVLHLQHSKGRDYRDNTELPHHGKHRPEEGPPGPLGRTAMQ

Variants of: B1
Details: with sh21a_human SH2D1A

Row | effect of a mutation on the interaction | Variant
1 | decreasing interaction | M602V

Variants of: B2
Details: with ship1_human INPP5D

Row | effect of a mutation on the interaction | Variant
2 | decreasing interaction | M602V
